Assay results taken from the supplement of paper PMC9732359.
± gives the uncertainty stated by the source.

Assay: protein stability index of a GFP-peptide fusion (yeast GPS) (PSI 1-4); higher = more stable; sorted into four equal gates, so the index is relative within each strain
Method in brief: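 Peptides tiling yeast proteins in 17-residue segments were fused downstream of GFP, with Cherry expressed from the same plasmid. As a pooled library in yeast, mid-log cultures grown in leucine-free medium were sorted into four equal gates by GFP/Cherry fluorescence ratio. Gate plasmids were PCR-amplified and Illumina-sequenced, and barcodes linked reads to strains. Each peptide received a protein stability index equal to the sum of each gate's read frequency times its gate number.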

Sequence	protein stability index (doa10∆)	protein stability index (pdr5∆)	protein stability index (san1∆)	protein stability index (ubr1∆)
PQGSTTNGGLFGSGTQN [YGR119C/NUP57]	3.12 ± 0.073	3.27 ± 0.058	3.3 ± 0.042	3.015 ± 0.029
IQNQSPQFNSPYDSNNS [SWI1]	2.97 ± 0.057	3 ± 0.053	2.74 ± 0.052	2.82 ± 0.046
APPQRPRFNRENKVSPA [RPS26A]	3.38 ± 0.15	2.83 ± 0.17	3 ± 0.072	2.95 ± 0.12
SKLKLKNLLRKNLSIDE [ECM29]	1.71 ± 0.086	1.47 ± 0.054	1.46 ± 0.098	1.76 ± 0.062
IVVVIEIITSLSMRFQR [SRB8]	2.5 ± 0.12	2.71 ± 0.092	2.18 ± 0.084	2.06 ± 0.087
SLIIDQQENSKSGKRKP [RPC31]	2.71 ± 0.099	2.7 ± 0.1	2.69 ± 0.086	2.7 ± 0.092
PLASEESLTNSNMFDNS [YGL100W/SEH1]	3.38 ± 0.18	3.02 ± 0.19	3.07 ± 0.12	3.29 ± 0.086
AQSRNVEIEKRILKLGT [YGR119C/NUP57]	3.33 ± 0.082	3.15 ± 0.071	3.33 ± 0.077	3.34 ± 0.078
MATLEELDAQTLPGDDE [RPT5]	3.31 ± 0.12	3.28 ± 0.15	3.35 ± 0.13	3.49 ± 0.13
FKELCYENKDNLTAGII [PRE3]	2.95 ± 0.044	2.95 ± 0.042	2.93 ± 0.034	2.83 ± 0.039
NISGEFFRNKLKYHDFL [RPL16B]	2.35 ± 0.063	2.18 ± 0.068	2.22 ± 0.067	1.79 ± 0.044
LPKIKTVRKSIACVLTV [RPL35A]	1.98 ± 0.28	2.79 ± 0.18	–	2.17 ± 0.14
QRTLSKSFYSTATGAAS [CYT1]	1.98 ± 0.06	2.39 ± 0.054	2.43 ± 0.068	2.39 ± 0.048
GNTVVDGEGKVDSISLH [YCG1]	3.54 ± 0.3	3.53 ± 0.23	–	–
ASDESLLRYGGAFTIAL [RPN2]	3.39 ± 0.099	3.35 ± 0.13	3.25 ± 0.098	3.34 ± 0.083
SALIENNLFRIIAELSF [YJL039C/NUP192]	2.22 ± 0.066	2.34 ± 0.056	2.04 ± 0.074	2.53 ± 0.052
IKVWTIKGQCLATLLGH [ASC1]	2.22 ± 0.085	1.59 ± 0.099	1.69 ± 0.1	1.39 ± 0.057
LESFQAVYNKLTGKQIV [RPS7A]	1.68 ± 0.055	1.32 ± 0.044	1.28 ± 0.098	1.53 ± 0.052
FNVVDVGVDQLSIELEG [YJL039C/NUP192]	3.49 ± 0.076	3.34 ± 0.058	3.29 ± 0.038	3.37 ± 0.049
REIESLIAEETNNKKLL [SMC3]	2.78 ± 0.18	2.86 ± 0.082	3.01 ± 0.11	2.92 ± 0.15
SVFGFRTQFGGGKSVGF [RPS24A]	2.56 ± 0.13	2.23 ± 0.076	3.31 ± 0.076	2.77 ± 0.088
AADTSIVEQDKSMELFY [YJL039C/NUP192]	2.07 ± 0.11	2.61 ± 0.13	2.63 ± 0.084	2.73 ± 0.2
IYSVEKKISRLPKFLTV [UBP6]	2.04 ± 0.065	2.07 ± 0.066	2.14 ± 0.091	2.46 ± 0.035
HTPTIASYLTPLLEAKK [SSN2]	3.04 ± 0.063	3.04 ± 0.051	3.01 ± 0.049	3.07 ± 0.048
MSLQHEKVTIAPLVLLS [RPN8]	1.19 ± 0.035	1.28 ± 0.032	1.2 ± 0.068	1.21 ± 0.031
KRVDFSGRTVISPDPNL [RPO31]	2.44 ± 0.1	2.65 ± 0.11	3.2 ± 0.14	2.83 ± 0.086

Sequence	protein stability index (doa10∆)	protein stability index (pdr5∆)	protein stability index (san1∆)	protein stability index (ubr1∆)
PYAIIKGKARLGTLVNQ [RPL8B]	1.83 ± 0.058	1.99 ± 0.06	1.28 ± 0.063	2 ± 0.053
PPSVTLQDWQREDEFGS [YDL088C/ASM4]	3.1 ± 0.11	3.31 ± 0.074	2.99 ± 0.065	3.24 ± 0.054
IPATIFDKVIYHLHPTF [TAF14]	2.61 ± 0.066	2.8 ± 0.068	2.55 ± 0.062	2.78 ± 0.057
HVKIRATGGTRTKTPGP [RPS14B]	1.38 ± 0.13	1.84 ± 0.15	2.25 ± 0.25	–
DRHIGCVYSGLIPDGRH [PRE10]	3.18 ± 0.098	3.41 ± 0.088	3.1 ± 0.062	3.54 ± 0.12
PDNSIFGDTKSESKQLG [SWI3]	3.54 ± 0.14	3.23 ± 0.091	3.21 ± 0.076	3.37 ± 0.052
FIAVGQILPESQWNDSS [SIR3]	2.27 ± 0.16	3.08 ± 0.14	2.61 ± 0.24	2.71 ± 0.097
NWRLVEVGRVVLIKKGQ [RPL14A]	2.17 ± 0.18	1.74 ± 0.13	2.15 ± 0.13	2.19 ± 0.19
QANPTEESISKFPDMGS [RPB5]	3.23 ± 0.082	3.26 ± 0.076	3.04 ± 0.074	3.26 ± 0.087
DTYPYLTGEWSTKFDYP [FAS1]	3.19 ± 0.073	2.96 ± 0.079	2.85 ± 0.063	2.94 ± 0.057
MSVERGIRWELISRLCP [RPT1]	1.73 ± 0.052	2.17 ± 0.048	1.88 ± 0.07	1.93 ± 0.034
FESLYNSNDSVFVGSGK [BRR2]	3.24 ± 0.098	3.18 ± 0.11	2.97 ± 0.13	3.15 ± 0.11
ADLRPLQIKSIREIDVT [RPS7B]	–	2.72 ± 0.26	2.53 ± 0.23	2.88 ± 0.1
KTYALESINNVVDQLWS [RPN2]	2.82 ± 0.066	2.9 ± 0.059	2.7 ± 0.07	2.6 ± 0.055
IMATNRLDILDPALLRP [RPT6]	2.92 ± 0.1	3.13 ± 0.092	2.81 ± 0.065	3.25 ± 0.057
TLVHTRVKIANTSAATV [SSN2]	2.35 ± 0.056	2.31 ± 0.046	2.32 ± 0.044	2.57 ± 0.035
GTGNNNKLNFIVDDKQE [DIB1]	1.42 ± 0.073	1.36 ± 0.047	1.57 ± 0.17	1.61 ± 0.058
KPLADLRPLFTRYELYI [YLR335W/NUP2]	2.4 ± 0.048	2.04 ± 0.04	2.09 ± 0.073	2.02 ± 0.029
ANNYSSNIGNNSINNNN [YDL088C/ASM4]	2.51 ± 0.071	3.19 ± 0.078	2.94 ± 0.085	2.76 ± 0.054
LPKVRYNVEKVKRLMDF [NSL1]	1.8 ± 0.07	2.38 ± 0.065	1.96 ± 0.13	2.15 ± 0.081
SSQPLEPLSDTEEPDLA [DSN1]	2.74 ± 0.062	2.69 ± 0.06	3.25 ± 0.037	2.36 ± 0.07
HLLSINYGEKEERKRWA [PCI8]	3.17 ± 0.11	3.13 ± 0.096	3.41 ± 0.18	3.4 ± 0.095
PQAILAKNSIIDSSNLP [SWI1]	2.02 ± 0.061	2.42 ± 0.061	2.32 ± 0.05	2.36 ± 0.04
RMERIKDHLLLEEEFVS [RPT2]	2.24 ± 0.12	2.22 ± 0.097	2.09 ± 0.13	2.23 ± 0.1
NASANSTSFSFNAPATG [YOR098C/NUP1]	2.99 ± 0.049	2.94 ± 0.051	3.05 ± 0.046	2.96 ± 0.033
MQFAKSKTVKVLKTLIE [RPN6]	1.24 ± 0.071	1.43 ± 0.077	2.51 ± 0.11	2.26 ± 0.093
